System: Escherichia coli TOP10
Test: shrunken log2 fold change of peptide-encoding DNA abundance (4.5 h post-induction vs induction); higher = less antimicrobial activity (less host growth inhibition)
Details: time post-induction: 4.5 h; library: site-saturation at positions 5, 18, 19, 20
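Further: peptides expressed intracellularly from a pBAD plasmid library in pooled LB shake-flask culture, induced with 0.3% L-arabinose, DNA abundance read by NGS, three biological replicates, DESeq2 with apeglm shrinkage.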

Row | Sequence | shrunken log2 fold change
1 | RRIRKRPPRLPRPRPRPKPEPRP | 0.781
2 | RRIRVRPPRLPRPRPRPEKLPRP | 0.0465
3 | RRIRFRPPRLPRPRPRPYCFPRP | -0.615
4 | RRIRGRPPRLPRPRPRPWIHPRP | 0.0779
5 | RRIRMRPPRLPRPRPRPDPVPRP | -0.0377
6 | RRIRNRPPRLPRPRPRPMGAPRP | 0.115
7 | RRIRMRPPRLPRPRPRPSWVPRP | 0.051
8 | RRIRIRPPRLPRPRPRPNERPRP | -0.319
9 | RRIRFRPPRLPRPRPRPWQFPRP | -0.333
10 | RRIRHRPPRLPRPRPRPANKPRP | -0.291
11 | RRIRSRPPRLPRPRPRPVRMPRP | 0.0776
12 | RRIRLRPPRLPRPRPRPGRCPRP | 0.341
13 | RRIRCRPPRLPRPRPRPGSKPRP | -0.179
14 | RRIRGRPPRLPRPRPRPIYLPRP | 0.0531
15 | RRIRKRPPRLPRPRPRPYENPRP | -0.517
16 | RRIRFRPPRLPRPRPRPAVTPRP | -0.347
17 | RRIRWRPPRLPRPRPRPWAFPRP | 0.044
18 | RRIRSRPPRLPRPRPRPQNNPRP | -0.573
19 | RRIRSRPPRLPRPRPRPCEEPRP | 0.00181
20 | RRIRKRPPRLPRPRPRPPGVPRP | 0.548
21 | RRIRYRPPRLPRPRPRPKWKPRP | -0.0135
22 | RRIRERPPRLPRPRPRPTLMPRP | 0.0249
23 | RRIRVRPPRLPRPRPRPKTWPRP | 0.063
24 | RRIRCRPPRLPRPRPRPFTMPRP | -1.13
25 | RRIRARPPRLPRPRPRPMHMPRP | -0.0568

Row | Sequence | shrunken log2 fold change
26 | RRIRIRPPRLPRPRPRPWAFPRP | -0.0187
27 | RRIRKRPPRLPRPRPRPKKQPRP | -0.119
28 | RRIRARPPRLPRPRPRPTTNPRP | 0.389
29 | RRIRYRPPRLPRPRPRPRDWPRP | 0.0703
30 | RRIRGRPPRLPRPRPRPDFWPRP | 0.593
31 | RRIRHRPPRLPRPRPRPFDEPRP | -0.173
32 | RRIRDRPPRLPRPRPRPIYCPRP | 0.0039
33 | RRIRHRPPRLPRPRPRPEWFPRP | -0.0468
34 | RRIRRRPPRLPRPRPRPYCYPRP | -0.101
35 | RRIRRRPPRLPRPRPRPYDWPRP | -0.0665
36 | RRIRTRPPRLPRPRPRPPICPRP | 0.0623
37 | RRIRTRPPRLPRPRPRPADIPRP | -0.0781
38 | RRIRSRPPRLPRPRPRPKSCPRP | 0.61
39 | RRIRYRPPRLPRPRPRPQCMPRP | -0.931
40 | RRIRHRPPRLPRPRPRPQTDPRP | -1.36
41 | RRIRFRPPRLPRPRPRPDDWPRP | 0.044
42 | RRIRHRPPRLPRPRPRPFKFPRP | -0.376
43 | RRIRTRPPRLPRPRPRPAACPRP | 0.0816
44 | RRIRHRPPRLPRPRPRPSRFPRP | 0.0223
45 | RRIRTRPPRLPRPRPRPEPPPRP | 0.395
46 | RRIRARPPRLPRPRPRPQYQPRP | -0.243
47 | RRIRWRPPRLPRPRPRPPQWPRP | 0.179
48 | RRIRERPPRLPRPRPRPSKNPRP | -0.895
49 | RRIRYRPPRLPRPRPRPELQPRP | 0.0344
50 | RRIRNRPPRLPRPRPRPIKPPRP | -0.00904

Row | Sequence | shrunken log2 fold change
51 | RRIRFRPPRLPRPRPRPASAPRP | 0.47
52 | RRIRVRPPRLPRPRPRPGWNPRP | -0.0405
53 | RRIRERPPRLPRPRPRPWFAPRP | -0.276
54 | RRIRGRPPRLPRPRPRPPTTPRP | 0.91
55 | RRIRRRPPRLPRPRPRPEKPPRP | 0.376
56 | RRIRTRPPRLPRPRPRPGVMPRP | 0.0539
57 | RRIRLRPPRLPRPRPRPIHEPRP | 0.139
58 | RRIRERPPRLPRPRPRPYGKPRP | -0.00133
59 | RRIRMRPPRLPRPRPRPGETPRP | 0.0143
60 | RRIRPRPPRLPRPRPRPTVMPRP | 0.0636
61 | RRIRSRPPRLPRPRPRPAVIPRP | -0.593
62 | RRIRSRPPRLPRPRPRPNAHPRP | -0.184
63 | RRIRSRPPRLPRPRPRPLHRPRP | -0.216
64 | RRIRPRPPRLPRPRPRPGGLPRP | 0.131
65 | RRIRLRPPRLPRPRPRPCTWPRP | 0.0461
66 | RRIRGRPPRLPRPRPRPKENPRP | 0.791
67 | RRIRMRPPRLPRPRPRPRICPRP | 0.113
68 | RRIRHRPPRLPRPRPRPKYKPRP | -0.679
69 | RRIRKRPPRLPRPRPRPDSTPRP | -0.0499
70 | RRIRIRPPRLPRPRPRPNENPRP | -0.59
71 | RRIRWRPPRLPRPRPRPNTIPRP | -0.492
72 | RRIRMRPPRLPRPRPRPRFNPRP | 0.148
73 | RRIRCRPPRLPRPRPRPMKRPRP | -0.176
74 | RRIRRRPPRLPRPRPRPRGYPRP | 0.398
75 | RRIRKRPPRLPRPRPRPNWGPRP | 0.308

Row | Sequence | shrunken log2 fold change
76 | RRIRQRPPRLPRPRPRPGTYPRP | 0.00894
77 | RRIRYRPPRLPRPRPRPAAHPRP | -0.134
78 | RRIRKRPPRLPRPRPRPQQQPRP | -0.0131
79 | RRIRSRPPRLPRPRPRPRHAPRP | 0.39
80 | RRIRPRPPRLPRPRPRPNVGPRP | 0.0392
81 | RRIRTRPPRLPRPRPRPSRRPRP | 0.128
82 | RRIRVRPPRLPRPRPRPEFKPRP | 0.0262
83 | RRIRDRPPRLPRPRPRPSWHPRP | -0.0852
84 | RRIRQRPPRLPRPRPRPFQKPRP | -0.173
85 | RRIRFRPPRLPRPRPRPCMYPRP | -0.418
86 | RRIRSRPPRLPRPRPRPNDKPRP | -0.553
87 | RRIRYRPPRLPRPRPRPRSKPRP | -0.439
88 | RRIRVRPPRLPRPRPRPKYGPRP | -0.141
89 | RRIRKRPPRLPRPRPRPLCLPRP | -0.126
90 | RRIRGRPPRLPRPRPRPEKLPRP | 0.844
91 | RRIRYRPPRLPRPRPRPKPGPRP | 0.221
92 | RRIRKRPPRLPRPRPRPARMPRP | 0.905
93 | RRIRHRPPRLPRPRPRPKSLPRP | -0.0347
94 | RRIRHRPPRLPRPRPRPYFIPRP | -1.14
95 | RRIRPRPPRLPRPRPRPETMPRP | 0.00383
96 | RRIRIRPPRLPRPRPRPTMKPRP | -0.309
97 | RRIRNRPPRLPRPRPRPHLWPRP | 0.0922
98 | RRIRMRPPRLPRPRPRPAFIPRP | -0.398
99 | RRIRSRPPRLPRPRPRPKYVPRP | -0.527
100 | RRIRNRPPRLPRPRPRPSHKPRP | -0.291

Row | Sequence | shrunken log2 fold change
101 | RRIRRRPPRLPRPRPRPKMMPRP | 0.296
102 | RRIRCRPPRLPRPRPRPWVEPRP | -0.689
103 | RRIRNRPPRLPRPRPRPSKLPRP | -0.582
104 | RRIRSRPPRLPRPRPRPPLIPRP | 0.191
105 | RRIRDRPPRLPRPRPRPTTNPRP | 0.411
106 | RRIRVRPPRLPRPRPRPEVMPRP | 0.344
107 | RRIRNRPPRLPRPRPRPCWVPRP | -0.0518
108 | RRIRARPPRLPRPRPRPYNWPRP | -0.481
109 | RRIRIRPPRLPRPRPRPNQDPRP | -0.507
110 | RRIRERPPRLPRPRPRPYTQPRP | -0.0502
111 | RRIRHRPPRLPRPRPRPWSCPRP | -0.0195
112 | RRIRSRPPRLPRPRPRPWLPPRP | 0.0131
113 | RRIRCRPPRLPRPRPRPYKNPRP | -0.984
114 | RRIRGRPPRLPRPRPRPENTPRP | 0.841
115 | RRIRRRPPRLPRPRPRPWIIPRP | -0.021
116 | RRIRSRPPRLPRPRPRPVEMPRP | 0.0369
117 | RRIRWRPPRLPRPRPRPSLHPRP | -0.044
118 | RRIRHRPPRLPRPRPRPATHPRP | -0.105
119 | RRIRLRPPRLPRPRPRPVHGPRP | 0.0748
120 | RRIRRRPPRLPRPRPRPNPWPRP | 0.231
121 | RRIRWRPPRLPRPRPRPMYHPRP | -0.712
122 | RRIRQRPPRLPRPRPRPSKAPRP | 0.356
123 | RRIRRRPPRLPRPRPRPNSHPRP | -0.11
124 | RRIRARPPRLPRPRPRPEKKPRP | 0.275
125 | RRIRKRPPRLPRPRPRPRAFPRP | 0.326

— the supplement of paper PMC9112550, “Optimization of the antimicrobial peptide Bac7 by deep mutational scanning” (BMC Biology, 2022)
